Results: publication PMC8390549

Target: N-terminal DYKDDDK-tagged mouse Tim-3 (T-cell immunoglobulin mucin domain-3) with the VN-173 portion of the Venus fluorophore at the C terminus (Tim-3-VN) (UniProt Q8VIM0)
Assay: bimolecular fluorescence complementation (BiFC)
Conditions: HeLa CD4+ cells, fixed 24 h after transfection; BiFC intensity normalized to Nef expression (HA staining); 3 independent repeats, 30 cells total; parent: est. 1.1; read off a plot

Chain of UniProt Q8VIM0 (Q8VIM0 20-281): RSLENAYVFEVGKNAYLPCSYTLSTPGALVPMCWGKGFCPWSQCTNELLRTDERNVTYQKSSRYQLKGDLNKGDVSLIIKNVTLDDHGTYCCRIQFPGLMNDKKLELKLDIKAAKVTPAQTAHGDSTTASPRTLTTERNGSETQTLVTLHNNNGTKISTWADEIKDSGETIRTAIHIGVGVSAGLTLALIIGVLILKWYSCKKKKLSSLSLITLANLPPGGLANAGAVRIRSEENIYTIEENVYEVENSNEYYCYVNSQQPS

Q: Which response does the source give for “HIV-1 NL4-3 Nef fused to a C-terminal HA tag and the VC-155 portion of the Venus fluorophore (Nef-HA-VC) L164A; L165A” here?
A: The response was 0.42 BiFC/Nef IF.
